Paper doi:10.1101/2020.08.27.268672 (bioRxiv, 2020)

Assays:
[1] = molecular target: Rel^NTD (purified, in solution) (Bacillus subtilis 168, UniProt O54408 1-391); test: ITC
[2] = molecular target: the molecule itself; test: SEC-MALS

Chain of Rel^NTD (purified, in solution) (O54408 1-391): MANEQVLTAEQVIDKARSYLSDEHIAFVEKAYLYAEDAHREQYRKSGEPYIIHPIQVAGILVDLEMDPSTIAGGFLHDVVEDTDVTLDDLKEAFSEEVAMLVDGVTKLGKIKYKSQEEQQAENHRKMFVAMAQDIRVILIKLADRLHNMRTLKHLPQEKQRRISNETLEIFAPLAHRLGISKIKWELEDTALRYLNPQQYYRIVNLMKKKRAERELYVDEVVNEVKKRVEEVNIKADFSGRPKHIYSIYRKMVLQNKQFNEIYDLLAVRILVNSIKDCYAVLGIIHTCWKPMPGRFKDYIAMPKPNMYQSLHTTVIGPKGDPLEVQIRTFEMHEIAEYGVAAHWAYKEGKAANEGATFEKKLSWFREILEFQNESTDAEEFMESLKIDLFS

B1: DarB (natural protein, Bacillus subtilis 168)
chain: ISLQSDQLLEATVGQFMIEADKVAHVQVGNNLEHALLVLTKTGYTAIPVLDPSYRLHGLIGTNMIMNSIFGLERIEFEKLDQITVEEVMLTDIPRLHINDPIMKGFGMVINNGFVCVENDEQVFEGIFTRRVVLKELNKHIRSLNK
Kd [1]: 650 nM | stoichiometry N [1]: 1 | stoichiometry N [2]: 2
